18 variants from the RNAGym collection of RNA variant scans (doi:10.1021/acssynbio.7b00057) can be followed below.

First the molecules themselves.
B1: Pistol ribozyme (parent)
chain: GGGUCGUUGUUCCAUAAUCGCGUGGAUAUGGCACGCAAGUUUCUACCGGGCACCGUAAAUGUCCGACUGGAGCCGUUCGGGCGGCUAUAAACAGACCUCAGGCCCGAAGCGUGGCGGCACCUGCCGCCGGUGGUAAAAAAGAUCGGAAGAGCACACGUCU

Variants of B1 are the subject of this series. Briefly: aptazyme ON/OFF ratio, guanine; higher = stronger switching; co-transcriptional cleavage with and without guanine.
On to GGGUCGAGUGUAUAUAAUCGCGUGGAUAUGGCACGCAAGUUUCUACCGGGCACCGUAAAUGUCCGACUGGAGCCGUUCGGGCGGCUAUAAACAGACCUCAGGCCCGAAGCGUGGCGGCACCUGCCGCCGGUGGUAAAAAAGAUCGGAAGAGCACACGUCU [U7A U8G G9U U10G C12A C13U], for which the “aptazyme ON/OFF ratio” value is 1.15.

With GGGUCGAGUGUAGAUAAUCGCGUGGAUAUGGCACGCAAGUUUCUACCGGGCACCGUAAAUGUCCGACUGGAGCCGUUCGGGCGGCUAUAAACAGACCUCAGGCCCGAAGCGUGGCGGCACCUGCCGCCGGUGGUAAAAAAGAUCGGAAGAGCACACGUCU [U7A U8G G9U U10G C12A C13G], the “aptazyme ON/OFF ratio” value was 1.14.

In the case of GGGUCGAGUGUAAAUAAUCGCGUGGAUAUGGCACGCAAGUUUCUACCGGGCACCGUAAAUGUCCGACUGGAGCCGUUCGGGCGGCUAUAAACAGACCUCAGGCCCGAAGCGUGGCGGCACCUGCCGCCGGUGGUAAAAAAGAUCGGAAGAGCACACGUCU [U7A U8G G9U U10G C12A C13A], the “aptazyme ON/OFF ratio” value worked out at 1.27.

For the variant GGGUCGAGUCGCCAUAAUCGCGUGGAUAUGGCACGCAAGUUUCUACCGGGCACCGUAAAUGUCCGACUGGAGCCGUUCGGGCGGCUAUAAACAGACCUCAGGCCCGAAGCGUGGCGGCACCUGCCGCCGGUGGUAAAAAAGAUCGGAAGAGCACACGUCU [U7A U8G G9U U10C U11G], the “aptazyme ON/OFF ratio” value is 1.71.

GGGUCGAGUCGAAAUAAUCGCGUGGAUAUGGCACGCAAGUUUCUACCGGGCACCGUAAAUGUCCGACUGGAGCCGUUCGGGCGGCUAUAAACAGACCUCAGGCCCGAAGCGUGGCGGCACCUGCCGCCGGUGGUAAAAAAGAUCGGAAGAGCACACGUCU [U7A U8G G9U U10C U11G C12A C13A]: the “aptazyme ON/OFF ratio” value turned out to be 1.16.

As to GGGUCGAGUCGAGAUAAUCGCGUGGAUAUGGCACGCAAGUUUCUACCGGGCACCGUAAAUGUCCGACUGGAGCCGUUCGGGCGGCUAUAAACAGACCUCAGGCCCGAAGCGUGGCGGCACCUGCCGCCGGUGGUAAAAAAGAUCGGAAGAGCACACGUCU [U7A U8G G9U U10C U11G C12A C13G], the “aptazyme ON/OFF ratio” value stood at 1.41.

For GGGUCGAGUCGAUAUAAUCGCGUGGAUAUGGCACGCAAGUUUCUACCGGGCACCGUAAAUGUCCGACUGGAGCCGUUCGGGCGGCUAUAAACAGACCUCAGGCCCGAAGCGUGGCGGCACCUGCCGCCGGUGGUAAAAAAGAUCGGAAGAGCACACGUCU [U7A U8G G9U U10C U11G C12A C13U], the “aptazyme ON/OFF ratio” value came to 1.45.

As for GGGUCGAGUCCCUAUAAUCGCGUGGAUAUGGCACGCAAGUUUCUACCGGGCACCGUAAAUGUCCGACUGGAGCCGUUCGGGCGGCUAUAAACAGACCUCAGGCCCGAAGCGUGGCGGCACCUGCCGCCGGUGGUAAAAAAGAUCGGAAGAGCACACGUCU [U7A U8G G9U U10C U11C C13U], the “aptazyme ON/OFF ratio” value was found to be 1.07.

As to GGGUCGAGUCCCGAUAAUCGCGUGGAUAUGGCACGCAAGUUUCUACCGGGCACCGUAAAUGUCCGACUGGAGCCGUUCGGGCGGCUAUAAACAGACCUCAGGCCCGAAGCGUGGCGGCACCUGCCGCCGGUGGUAAAAAAGAUCGGAAGAGCACACGUCU [U7A U8G G9U U10C U11C C13G], the “aptazyme ON/OFF ratio” value came to 1.12.

For GGGUCGAGUCCCAAUAAUCGCGUGGAUAUGGCACGCAAGUUUCUACCGGGCACCGUAAAUGUCCGACUGGAGCCGUUCGGGCGGCUAUAAACAGACCUCAGGCCCGAAGCGUGGCGGCACCUGCCGCCGGUGGUAAAAAAGAUCGGAAGAGCACACGUCU [U7A U8G G9U U10C U11C C13A], the “aptazyme ON/OFF ratio” value is 1.04.

On to GGGUCGAGUCGUGAUAAUCGCGUGGAUAUGGCACGCAAGUUUCUACCGGGCACCGUAAAUGUCCGACUGGAGCCGUUCGGGCGGCUAUAAACAGACCUCAGGCCCGAAGCGUGGCGGCACCUGCCGCCGGUGGUAAAAAAGAUCGGAAGAGCACACGUCU [U7A U8G G9U U10C U11G C12U C13G], for which the “aptazyme ON/OFF ratio” value was determined as 1.31.

Consider GGGUCGAGUCGUUAUAAUCGCGUGGAUAUGGCACGCAAGUUUCUACCGGGCACCGUAAAUGUCCGACUGGAGCCGUUCGGGCGGCUAUAAACAGACCUCAGGCCCGAAGCGUGGCGGCACCUGCCGCCGGUGGUAAAAAAGAUCGGAAGAGCACACGUCU [U7A U8G G9U U10C U11G C12U C13U], for which the “aptazyme ON/OFF ratio” value is 1.53.

For GGGUCGAGUCGUAAUAAUCGCGUGGAUAUGGCACGCAAGUUUCUACCGGGCACCGUAAAUGUCCGACUGGAGCCGUUCGGGCGGCUAUAAACAGACCUCAGGCCCGAAGCGUGGCGGCACCUGCCGCCGGUGGUAAAAAAGAUCGGAAGAGCACACGUCU [U7A U8G G9U U10C U11G C12U C13A], the “aptazyme ON/OFF ratio” value was determined as 1.21.

As to GGGUCGAGUGUCCAUAAUCGCGUGGAUAUGGCACGCAAGUUUCUACCGGGCACCGUAAAUGUCCGACUGGAGCCGUUCGGGCGGCUAUAAACAGACCUCAGGCCCGAAGCGUGGCGGCACCUGCCGCCGGUGGUAAAAAAGAUCGGAAGAGCACACGUCU [U7A U8G G9U U10G], the “aptazyme ON/OFF ratio” value was 1.47.

On to GGGUCGAGUCGCUAUAAUCGCGUGGAUAUGGCACGCAAGUUUCUACCGGGCACCGUAAAUGUCCGACUGGAGCCGUUCGGGCGGCUAUAAACAGACCUCAGGCCCGAAGCGUGGCGGCACCUGCCGCCGGUGGUAAAAAAGAUCGGAAGAGCACACGUCU [U7A U8G G9U U10C U11G C13U], for which the “aptazyme ON/OFF ratio” value was 1.31.

For GGGUCGAGUCGCAAUAAUCGCGUGGAUAUGGCACGCAAGUUUCUACCGGGCACCGUAAAUGUCCGACUGGAGCCGUUCGGGCGGCUAUAAACAGACCUCAGGCCCGAAGCGUGGCGGCACCUGCCGCCGGUGGUAAAAAAGAUCGGAAGAGCACACGUCU [U7A U8G G9U U10C U11G C13A], the “aptazyme ON/OFF ratio” value is 1.28.

With GGGUCGAGUCGCGAUAAUCGCGUGGAUAUGGCACGCAAGUUUCUACCGGGCACCGUAAAUGUCCGACUGGAGCCGUUCGGGCGGCUAUAAACAGACCUCAGGCCCGAAGCGUGGCGGCACCUGCCGCCGGUGGUAAAAAAGAUCGGAAGAGCACACGUCU [U7A U8G G9U U10C U11G C13G], the “aptazyme ON/OFF ratio” value was determined as 1.38.

Regarding GGGUCGAGUGUGAAUAAUCGCGUGGAUAUGGCACGCAAGUUUCUACCGGGCACCGUAAAUGUCCGACUGGAGCCGUUCGGGCGGCUAUAAACAGACCUCAGGCCCGAAGCGUGGCGGCACCUGCCGCCGGUGGUAAAAAAGAUCGGAAGAGCACACGUCU [U7A U8G G9U U10G C12G C13A], the “aptazyme ON/OFF ratio” value stood at 1.37.
